This experiment concerns the target T1, Neogenin (Mus musculus, UniProt P97798).
T1 chain: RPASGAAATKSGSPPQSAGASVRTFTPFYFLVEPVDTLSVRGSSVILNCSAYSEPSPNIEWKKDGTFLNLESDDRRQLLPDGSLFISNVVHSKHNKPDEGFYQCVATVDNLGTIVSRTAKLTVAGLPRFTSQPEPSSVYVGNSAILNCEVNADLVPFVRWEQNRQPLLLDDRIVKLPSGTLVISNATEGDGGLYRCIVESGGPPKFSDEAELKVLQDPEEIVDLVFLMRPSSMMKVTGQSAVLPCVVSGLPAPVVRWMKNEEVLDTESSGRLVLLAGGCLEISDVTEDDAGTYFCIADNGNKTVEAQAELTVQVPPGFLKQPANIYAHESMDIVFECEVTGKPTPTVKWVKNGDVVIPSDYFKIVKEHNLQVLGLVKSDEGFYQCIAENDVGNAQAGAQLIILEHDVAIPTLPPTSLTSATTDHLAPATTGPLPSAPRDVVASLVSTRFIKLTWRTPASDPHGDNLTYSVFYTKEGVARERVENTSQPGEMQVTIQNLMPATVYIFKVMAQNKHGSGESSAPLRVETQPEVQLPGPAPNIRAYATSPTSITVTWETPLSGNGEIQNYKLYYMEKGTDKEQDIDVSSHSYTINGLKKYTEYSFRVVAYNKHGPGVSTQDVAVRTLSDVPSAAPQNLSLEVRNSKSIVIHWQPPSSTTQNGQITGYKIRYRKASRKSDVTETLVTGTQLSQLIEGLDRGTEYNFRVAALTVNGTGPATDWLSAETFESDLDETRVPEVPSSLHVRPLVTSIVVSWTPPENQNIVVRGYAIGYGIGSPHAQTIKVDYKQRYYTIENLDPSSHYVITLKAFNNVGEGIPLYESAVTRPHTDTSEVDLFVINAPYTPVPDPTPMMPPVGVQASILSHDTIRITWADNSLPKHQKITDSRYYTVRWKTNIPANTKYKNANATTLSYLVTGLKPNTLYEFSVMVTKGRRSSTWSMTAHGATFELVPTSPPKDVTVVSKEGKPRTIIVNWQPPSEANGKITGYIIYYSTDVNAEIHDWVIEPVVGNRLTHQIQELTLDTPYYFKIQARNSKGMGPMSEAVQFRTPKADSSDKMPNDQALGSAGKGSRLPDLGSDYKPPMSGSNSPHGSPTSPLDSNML
In words: saturation binding of draxin-AP to Neo1-transfected HEK293T cells, Scatchard analysis.

The values that follow come from PMC4682175 (2015).

As a reminder, the Kd is the equilibrium constant for the complex coming apart. Lower therefore signals higher affinity.

B1: Draxin (protein)
chain: GTLASGSSARNLPETHSHLPSSALWVSQASHHGRRGLGKKDRGPGRPSRAQEGAVVTATKQASQMTLGQPPAGLLQNKELLLGLTLPYPEKEARSPAWERVKKRGREHKRRRDRLRLHRGRAAIRGPSSLMKKVEPSEDRMLEGTMEESSTSLAPTMFFLTMTDGATPTTEESRILPVTSLRPQTQPRSDGEVMPTLDMALFDWTDYEDLKPEVWPSAKKKEKHWSHFTSDGNETSPAEGDPCDHHQDCLPGTCCDLREHLCTPHNRGLNNKCFDDCMCMEGLRCYAKFHRNRRVTRRKGRCVEPETANGDQGSFINI
modifications: draxin alkaline phosphatase fusion
The molecule B1 showed a Kd of 0.62 nM.
